# Tests used:
# actin [1] = target: actin (UniProt P68135); experiment: SEC-MALS
# [2] = target: VopL fragment 200-484 (1W-VCD) (Vibrio parahaemolyticus) (UniProt Q87GE5); experiment: SEC-MALS
# actin [3] = target: actin (UniProt P68135); experiment: SAXS
# [4] = target: 3W-VCD-AviTag bound to quantum dots (Vibrio parahaemolyticus) (UniProt Q87GE5); experiment: TIRF microscopy
# actin [5] = target: actin (UniProt P68135); experiment: ITC
substance,measurement,setting,value
VopL fragment 200-484 (1W-VCD) (from UniProt Q87GE5 200-484) (domain or fragment),stoichiometry N (actin molecules per 1W-VCD dimer),actin [1],2
same,stoichiometry N,[2],2
same,stoichiometry N (actin molecules per 1W-VCD dimer),actin [3],2
actin (from UniProt P68135 1-377) (natural protein),percent of filaments associated with Qdots through the pointed end,[4],10.9%
third W domain of VopL (domain or fragment),Kd,actin [5],410 nM

# — publication PMC3173040
